The target in the experiment is T1, Slh1 (from SLH1-FTP, released by TEV protease) as imaged by HS-AFM (S. cerevisiae, UniProt P53327 1-1967).
T1 construct: Slh1 (RQT2), S. cerevisiae; The methods describe this purification for the wild-type and the double-mutant trimer; not shown: protein A (behind a TEV site), C-terminal, cleaved
Put plainly: HS-AFM; purified complex (5 nM) on mica in RQT-AFM buffer (50 mM Tris pH 7.5, 100 mM NaCl, 10 mM MgCl2, 100 mM L-arginine, 10 µM ZnCl2), room temperature. The conditions noted are these: both partners purified.

T1 sequence (P53327 whole entry): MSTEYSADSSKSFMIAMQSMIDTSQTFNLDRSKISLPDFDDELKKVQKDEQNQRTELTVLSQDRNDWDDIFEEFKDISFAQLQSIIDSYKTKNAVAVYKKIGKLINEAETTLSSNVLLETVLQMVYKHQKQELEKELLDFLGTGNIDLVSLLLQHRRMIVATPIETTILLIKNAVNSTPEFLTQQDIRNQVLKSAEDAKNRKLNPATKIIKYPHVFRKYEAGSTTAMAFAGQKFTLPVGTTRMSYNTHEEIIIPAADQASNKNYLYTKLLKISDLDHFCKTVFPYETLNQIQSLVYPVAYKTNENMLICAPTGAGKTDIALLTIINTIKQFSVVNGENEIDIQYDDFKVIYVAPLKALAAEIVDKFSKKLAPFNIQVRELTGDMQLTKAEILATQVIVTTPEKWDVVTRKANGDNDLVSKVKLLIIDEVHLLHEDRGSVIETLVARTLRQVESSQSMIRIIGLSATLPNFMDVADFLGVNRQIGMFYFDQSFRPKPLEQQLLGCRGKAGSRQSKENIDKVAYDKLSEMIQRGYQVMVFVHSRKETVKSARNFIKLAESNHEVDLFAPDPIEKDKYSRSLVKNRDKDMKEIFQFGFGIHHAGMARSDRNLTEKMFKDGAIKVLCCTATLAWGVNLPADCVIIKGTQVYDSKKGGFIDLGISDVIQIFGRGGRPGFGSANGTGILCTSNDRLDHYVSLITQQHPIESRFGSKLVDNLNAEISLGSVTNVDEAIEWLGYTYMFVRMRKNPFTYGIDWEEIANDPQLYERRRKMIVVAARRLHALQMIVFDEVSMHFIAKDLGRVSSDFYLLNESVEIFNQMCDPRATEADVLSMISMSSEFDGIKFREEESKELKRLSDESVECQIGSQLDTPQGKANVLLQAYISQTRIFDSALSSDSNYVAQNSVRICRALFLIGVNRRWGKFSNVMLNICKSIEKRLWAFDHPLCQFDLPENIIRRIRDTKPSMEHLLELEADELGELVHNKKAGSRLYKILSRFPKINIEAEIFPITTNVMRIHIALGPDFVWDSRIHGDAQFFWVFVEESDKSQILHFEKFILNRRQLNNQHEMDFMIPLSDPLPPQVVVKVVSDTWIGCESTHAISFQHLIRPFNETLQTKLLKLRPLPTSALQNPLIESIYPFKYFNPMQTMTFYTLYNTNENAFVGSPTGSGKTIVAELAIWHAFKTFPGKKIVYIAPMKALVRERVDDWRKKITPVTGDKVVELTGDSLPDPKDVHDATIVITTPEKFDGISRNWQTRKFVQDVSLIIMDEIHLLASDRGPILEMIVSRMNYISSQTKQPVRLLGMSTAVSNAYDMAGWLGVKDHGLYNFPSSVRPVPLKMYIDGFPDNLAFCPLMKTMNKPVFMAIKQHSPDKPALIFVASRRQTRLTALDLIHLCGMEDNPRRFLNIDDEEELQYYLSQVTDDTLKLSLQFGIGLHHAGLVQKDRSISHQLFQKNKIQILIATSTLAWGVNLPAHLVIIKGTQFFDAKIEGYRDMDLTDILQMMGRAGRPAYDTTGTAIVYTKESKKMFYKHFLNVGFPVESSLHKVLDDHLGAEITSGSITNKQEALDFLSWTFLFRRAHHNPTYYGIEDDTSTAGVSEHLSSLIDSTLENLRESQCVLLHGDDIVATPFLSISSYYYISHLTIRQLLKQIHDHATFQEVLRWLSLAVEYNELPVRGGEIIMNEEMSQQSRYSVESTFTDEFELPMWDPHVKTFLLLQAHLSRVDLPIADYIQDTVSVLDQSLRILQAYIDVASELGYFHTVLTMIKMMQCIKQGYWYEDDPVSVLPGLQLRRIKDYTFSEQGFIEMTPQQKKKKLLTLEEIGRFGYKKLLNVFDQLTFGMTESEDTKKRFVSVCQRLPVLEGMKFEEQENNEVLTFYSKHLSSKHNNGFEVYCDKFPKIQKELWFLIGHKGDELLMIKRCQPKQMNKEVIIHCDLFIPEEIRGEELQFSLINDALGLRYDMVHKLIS

B1: Cue3 as imaged by HS-AFM in the Slh1/Cue3 complex (natural protein, S. cerevisiae, UniProt P53137 1-624, looked up)
chain: MLSRYNRVIEINGGNADISLPIVKFPPFKLRAQLIEKDPVVWLHLIETYVTYFEYLMQGANVELLDESTLDHLRLFLRTYLHEIADEEGKLLSLGINHDVSEQLYLLKGWIFSLIKKCGLLHLQIFGDSLWNLIKVYVRRNPDSIRGLIDGSLKPRINTQRVQLDKSYQVQQHLKQLIESGKFKRIDLRCVEDLLSAKSMQPNKFAENFFTANWIEILEALWAKGQGRGHKEARELIIISLFSVSADRLLKITKELGISNFETLALYPLLGTMLINEGVHKRLPDLKSKLLFLNLGGLSMDEGDHMSYPTSSGTEVNEEQLSALMELFPQFSKYQLSQTLLAYDNNIELVTNKIFEDPTIIEAFSREPAEEEVEPVSDGDNASFTEELSILDRGDSSKNKELDKKIISEGVPDELRNKTLTRALKLLYEADEDERDDTYDEADVNRSDPSKRIGLQEDEESYDTKDDSNEVRQDHNYHIVEAYLWNLLKEDPKLFERSKRGTKVRKTMKEMTSWSDEKIEGWCRMLERSPTRARLLEKKFMFKGNSKTGKTSYVHNRDSQNDGNVVKEQAKQKKSENIKKHEPQSTEQKKRQHAKNEKRKGARANHNRKKGHDKKLARAGNNAI
notes: Cue3 (RQT3), S. cerevisiae
Consider B1, for which the binding result is listed as “binds”.

B2: Rqt4 as imaged by HS-AFM in the Slh1/Rqt4 complex (natural protein, S. cerevisiae, UniProt P36119 1-530, looked up)
chain: MTRKQAIDYAIKQVPQILPLEESDVKALCEQVLSTSSDDPEQIASKFLEFLGHEDLSFEFVMKFNELLNQNDKKEEKKTKNVHLEHTAPTSWKNESKQPTNNYINKKGDEKPKKLKDEKKSSTTRPTVQPSNQSTQSNPIKEKKEHRSKGKLQSLQEIDEAIKMLELRDSGSSKNCNCQGTRHPVFDIAPNCLHCGKVVCVIEGLNKGKCGHCHEQLISDNERTQMVEILNQEKNELNGSSSSLSNASNGANVPKKKTKTYKITSGMGKNLFAEQDKLFDFIERKRERERKRNEVLKLQEEKEESEAKERQASEHDHKAEENPELLAAQERLDRLLYFQDTSAERTKIIDNASDFDMNQEVGLWGSARERALALKKQQRNLRKWEKVEKERNGRREKYVVSMNIGSNGKVTMTEVPKDTENVIAGSDDDISDISDEEDISDLKHIHALKSEINTTKSLENLHLQSKAWDYERDKKQFDRPTYVKKNSDTAQQNRKTEEKAHDMQAYDLKSRVQVDQNADASVEQNILAVL
notes: Rqt4, S. cerevisiae
Regarding B2, the binding result is listed as “binds”.
